Literature values, collected in article PMC9760423.

Key:
4E-BP2 (Homo sapiens) = 4E-BP2 (Homo sapiens) (UniProt Q13542)
[1] = molecular target: Cdc4 (Saccharomyces cerevisiae) (UniProt P07834)
UniProt P07834, sequence (P07834 whole entry): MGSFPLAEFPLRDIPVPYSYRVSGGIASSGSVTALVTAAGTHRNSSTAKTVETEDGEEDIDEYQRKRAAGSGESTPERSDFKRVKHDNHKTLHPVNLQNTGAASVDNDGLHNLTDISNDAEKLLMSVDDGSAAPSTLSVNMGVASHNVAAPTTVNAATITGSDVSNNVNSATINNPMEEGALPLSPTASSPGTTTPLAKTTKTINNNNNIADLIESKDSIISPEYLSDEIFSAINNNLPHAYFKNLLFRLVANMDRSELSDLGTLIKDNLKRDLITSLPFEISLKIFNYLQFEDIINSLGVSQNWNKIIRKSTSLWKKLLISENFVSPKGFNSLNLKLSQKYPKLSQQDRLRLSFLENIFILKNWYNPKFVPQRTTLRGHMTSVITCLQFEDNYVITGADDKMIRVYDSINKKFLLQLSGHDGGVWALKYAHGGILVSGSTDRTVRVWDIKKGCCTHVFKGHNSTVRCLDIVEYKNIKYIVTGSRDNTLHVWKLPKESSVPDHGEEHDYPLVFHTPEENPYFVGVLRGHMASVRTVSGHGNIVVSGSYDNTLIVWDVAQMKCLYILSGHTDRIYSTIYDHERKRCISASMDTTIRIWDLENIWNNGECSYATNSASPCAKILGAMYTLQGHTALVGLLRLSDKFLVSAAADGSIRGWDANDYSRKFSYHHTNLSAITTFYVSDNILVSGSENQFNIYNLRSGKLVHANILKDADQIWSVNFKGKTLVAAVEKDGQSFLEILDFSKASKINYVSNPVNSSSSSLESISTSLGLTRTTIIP

UniProt Q13542, sequence (Q13542 whole entry): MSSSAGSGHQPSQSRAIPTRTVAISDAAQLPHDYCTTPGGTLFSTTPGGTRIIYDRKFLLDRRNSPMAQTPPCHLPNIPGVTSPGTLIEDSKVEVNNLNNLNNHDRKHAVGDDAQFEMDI

Kd (4E-BP2 (Homo sapiens)) [nM] | Kd [1] [nM] | Substance
3.2 | – | eIF4E (from UniProt P06730)
– | 1000 | Sic1 (from UniProt P38634)
